From patent publication US20170360931A1

How the values were obtained:
Assay in all cases: cell-based or functional assay
[1] = biological target: HA of wild type A/Shanghai/1/2013 (H7N9) virus (influenza A virus A/Shanghai/1/2013 (H7N9))
[2] = biological target: HA of A/California/04/2009 (H1N1) virus (influenza A virus A/California/04/2009 (H1N1))
[3] = biological target: all H3N2 and H7 strains (plaque reduction assay)

B1: 042-100809-2F04 (antibody, V domains shown)
VH: EVQLVESGGGLVQPGGSLRLSCVASGFTFSTPWMTWIRQAPGKGLEWVAHIKQDGSETYYVDSVKGRFTISRDNAKNSLYLQMNSLKAEDTALYYCARMTRESSENYWGQGTLVTVSS
VL: DVVMTQSPLSLPVTLGQPASISCRSSQSLVYSDGDTFLEWFQQRPGQSPRRLIYKVSNRDSGVPDRFSGSGSGTDFTLKISRVEAEDVGLYYCMQHTHWPHTFGQGTKVEIK
Work on B1 yielded a PRNT50 (plaque reduction assay) [1] of 27 µg/mL.

B2: S6-B01 (antibody, V domains shown)
VH: QVQLVQSGAEVKKPGASVKVSCKASGYTFNSYGISWVRQAPGQGLEWMGWISAYTGDTKFAQNVQGRVTMTIDTSTSTAYMELRSLRSDDTAVYYCARHYLQGVVVVDPYSHAMDVWGQGTTVTVSS
VL: EIVLTQSPGTLSFFPGERATLSCRASQTINSRFLAWYQQKPGQAPRLLIYGASSRATGIPDRFSGRGSGTDFTLAISRLEPEDFAVYYCQLYGSSRTTFGQGTKVEIK
B2 was tested, and the PRNT50 (plaque reduction assay) [2] was over 120 µg/mL and the PRNT50 (plaque reduction assay) [3] was 3 to 6 µg/mL.
